Assay results reported in the supplement of paper PMC7877785.
± gives the uncertainty stated by the source.

Assay: self-splicing fitness, log relative to wild type (ln ratio); higher = more splicing; Tetrahymena group I intron in knt gene, E. coli kanamycin selection, DiMSum; sequences stand for … in CUCUCU…GGAGGGAAAAGUUAUCAGGCAUGCACCUGGUAGCUAGUCUUUAAACCAAUAGAUUGCAUCGGUUUAAAAGGCAAGACCGUCAAAUUGCGGGAAAGGGGUCAACAGCCGUUCAGUACCAAGUCUCAGGGGAAACUUUGAGAUGGCCUUGCAAAGGGUAUGGUAAUAAGCUGACGGACAUGGUCCUAACCACGCAGCCAAGUCCUAAGUCAACAGAUCUUCUGUUGAUAUGGAUGCAGUUCACAGACUAAAUGUCGGUCGGGGAAGAUGUAUUCUUCUCAUAAGAUAUAGUCGGACCUCUCCUUAAUGGGAGCUAGCGGAUGAAGUGAUGCAACACUGGAGCCGCUGGGAACUAAUUUGUAUGCGAAAGUAUAUUGAUUAGUUUUGGAGUACUCGUGGUCG
Procedure, shortened: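 A randomised library covering all eight P1ex-region intron nucleotides was built with the intron in the knt kanamycin-resistance gene on pET-22b(+) and held in E. coli BL21(DE3). Cells were grown overnight at 37°C or 30°C on LB agar, with or without 25 μg/mL kanamycin, plus 100 μg/mL carbenicillin, 50 μM IPTG and 0.2% rhamnose, and pooled colonies were amplicon-sequenced on an Illumina HiSeq 2500. DiMSum fitness is the error-weighted combination of wild-type-normalised replicate fold changes, kanamycin versus none.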

In the case of CUUAAGCAAUAUUACGGUCG, the “self-splicing fitness (ln)” value (30 °C) is reported as 0.0331 ± 0.082 and the “self-splicing fitness (ln)” value (37 °C) is reported as 0.0238 ± 0.093.

In the case of CUUAAGCAAUAUUACGUCAA, the “self-splicing fitness (ln)” value (30 °C) is reported as -3.38 ± 0.35 and the “self-splicing fitness (ln)” value (37 °C) is reported as -2.33 ± 0.21.

With CUUAAGCAAUAUUACGUCCA the “self-splicing fitness (ln)” value (30 °C) was -2.93 ± 0.48 and the “self-splicing fitness (ln)” value (37 °C) was -2.34 ± 0.46.

With CUUAAGCAAUAUUACGUGCU the “self-splicing fitness (ln)” value (30 °C) was -2.16 ± 0.24 and the “self-splicing fitness (ln)” value (37 °C) was -2.1 ± 0.18.

With CUUAAGCAAUAUUACGUGGC the “self-splicing fitness (ln)” value (37 °C) was 0.00177 ± 0.26.

With CUUAAGCAAUAUUACGUUAG the “self-splicing fitness (ln)” value (30 °C) was -3.59 ± 0.23 and the “self-splicing fitness (ln)” value (37 °C) was -1.59 ± 0.17.

With CUUCAGCAAUAUUACGAGGG the “self-splicing fitness (ln)” value (30 °C) was -3.48 ± 0.22 and the “self-splicing fitness (ln)” value (37 °C) was -2.31 ± 0.22.

With CUUCAGCAAUAUUACGAUGG the “self-splicing fitness (ln)” value (30 °C) was -2.3 ± 0.11 and the “self-splicing fitness (ln)” value (37 °C) was -1.38 ± 0.15.

With CUUCAGCAAUAUUACGCAUC the “self-splicing fitness (ln)” value (30 °C) was -2.85 ± 0.22 and the “self-splicing fitness (ln)” value (37 °C) was -2.68 ± 0.22.

With CUUCAGCAAUAUUACGCCAU the “self-splicing fitness (ln)” value (30 °C) was -4.2 ± 0.3 and the “self-splicing fitness (ln)” value (37 °C) was -2.02 ± 0.23.

For CUUCAGCAAUAUUACGCCGG, the “self-splicing fitness (ln)” value (30 °C) was -2.73 ± 0.34.

With CUUCAGCAAUAUUACGCGCA the “self-splicing fitness (ln)” value (30 °C) was -1.93 ± 0.29 and the “self-splicing fitness (ln)” value (37 °C) was 0.383 ± 0.28.

For CUUCAGCAAUAUUACGCUCU, the “self-splicing fitness (ln)” value (30 °C) was -3.79 ± 0.39.

With CUUCAGCAAUAUUACGGACA the “self-splicing fitness (ln)” value (30 °C) was -3.26 ± 0.35 and the “self-splicing fitness (ln)” value (37 °C) was -2.3 ± 0.26.

In the case of CUUCAGCAAUAUUACGGAUC, the “self-splicing fitness (ln)” value (30 °C) is reported as -1.38 ± 0.08 and the “self-splicing fitness (ln)” value (37 °C) is reported as -0.259 ± 0.1.

In the case of CUUCAGCAAUAUUACGGGAA, the “self-splicing fitness (ln)” value (30 °C) is reported as -1.22 ± 0.097 and the “self-splicing fitness (ln)” value (37 °C) is reported as -2.08 ± 0.1.

For CUUCAGCAAUAUUACGGGAC, the “self-splicing fitness (ln)” value (30 °C) was -2.8 ± 0.11 and the “self-splicing fitness (ln)” value (37 °C) was -0.836 ± 0.12.

In the case of CUUCAGCAAUAUUACGGGGU, the “self-splicing fitness (ln)” value (30 °C) is reported as -3.95 ± 0.2 and the “self-splicing fitness (ln)” value (37 °C) is reported as -2.45 ± 0.25.

For CUUCAGCAAUAUUACGGGUC, the “self-splicing fitness (ln)” value (30 °C) was -3.39 ± 0.28 and the “self-splicing fitness (ln)” value (37 °C) was -0.947 ± 0.25.

In the case of CUUCAGCAAUAUUACGGUGC, the “self-splicing fitness (ln)” value (30 °C) is reported as -3.36 ± 0.21 and the “self-splicing fitness (ln)” value (37 °C) is reported as -1.56 ± 0.31.

In the case of CUUCAGCAAUAUUACGUCAC, the “self-splicing fitness (ln)” value (37 °C) is reported as -1.41 ± 0.19.

For CUUCAGCAAUAUUACGUCCG, the “self-splicing fitness (ln)” value (30 °C) was -0.583 ± 0.056 and the “self-splicing fitness (ln)” value (37 °C) was -0.437 ± 0.09.

In the case of CUUCAGCAAUAUUACGUCGG, the “self-splicing fitness (ln)” value (30 °C) is reported as -1.85 ± 0.15 and the “self-splicing fitness (ln)” value (37 °C) is reported as -1.79 ± 0.24.

In the case of CUUCAGCAAUAUUACGUCUG, the “self-splicing fitness (ln)” value (30 °C) is reported as -2.73 ± 0.12 and the “self-splicing fitness (ln)” value (37 °C) is reported as -1.48 ± 0.16.

In the case of CUUCAGCAAUAUUACGUUAG, the “self-splicing fitness (ln)” value (30 °C) is reported as -1.66 ± 0.071 and the “self-splicing fitness (ln)” value (37 °C) is reported as -1.25 ± 0.094.

For CUUCAGCAAUAUUACGUUCA, the “self-splicing fitness (ln)” value (30 °C) was -3.63 ± 0.26 and the “self-splicing fitness (ln)” value (37 °C) was -2.04 ± 0.23.

With CUUGAGCAAUAUUACGAAAA the “self-splicing fitness (ln)” value (30 °C) was -2.53 ± 0.38 and the “self-splicing fitness (ln)” value (37 °C) was -1.92 ± 0.38.

For CUUGAGCAAUAUUACGAAAC, the “self-splicing fitness (ln)” value (30 °C) was -4 ± 0.33 and the “self-splicing fitness (ln)” value (37 °C) was -2.78 ± 0.36.

With CUUGAGCAAUAUUACGAAUC the “self-splicing fitness (ln)” value (30 °C) was -4.03 ± 0.31 and the “self-splicing fitness (ln)” value (37 °C) was -1.86 ± 0.26.

In the case of CUUGAGCAAUAUUACGACGC, the “self-splicing fitness (ln)” value (30 °C) is reported as -2.13 ± 0.39 and the “self-splicing fitness (ln)” value (37 °C) is reported as -1.9 ± 0.46.

For CUUGAGCAAUAUUACGACUG, the “self-splicing fitness (ln)” value (30 °C) was -0.383 ± 0.084 and the “self-splicing fitness (ln)” value (37 °C) was 0.0311 ± 0.12.

With CUUGAGCAAUAUUACGAGUG the “self-splicing fitness (ln)” value (30 °C) was -1.72 ± 0.081 and the “self-splicing fitness (ln)” value (37 °C) was -0.765 ± 0.093.

With CUUGAGCAAUAUUACGCCGG the “self-splicing fitness (ln)” value (30 °C) was -4.04 ± 0.46 and the “self-splicing fitness (ln)” value (37 °C) was -1.65 ± 0.47.

In the case of CUUGAGCAAUAUUACGCGAU, the “self-splicing fitness (ln)” value (37 °C) is reported as 1.12 ± 0.27.

For CUUGAGCAAUAUUACGCGUU, the “self-splicing fitness (ln)” value (30 °C) was -4.07 ± 0.39 and the “self-splicing fitness (ln)” value (37 °C) was -2.14 ± 0.23.

With CUUGAGCAAUAUUACGGACA the “self-splicing fitness (ln)” value (30 °C) was -2.41 ± 0.37.

For CUUGAGCAAUAUUACGGAUA, the “self-splicing fitness (ln)” value (30 °C) was -3.62 ± 0.4 and the “self-splicing fitness (ln)” value (37 °C) was -1.76 ± 0.4.

In the case of CUUGAGCAAUAUUACGGCUU, the “self-splicing fitness (ln)” value (30 °C) is reported as -3.95 ± 0.22 and the “self-splicing fitness (ln)” value (37 °C) is reported as -2.41 ± 0.24.

In the case of CUUGAGCAAUAUUACGGUCG, the “self-splicing fitness (ln)” value (30 °C) is reported as -1.67 ± 0.15 and the “self-splicing fitness (ln)” value (37 °C) is reported as -2.3 ± 0.3.

In the case of CUUGAGCAAUAUUACGGUGG, the “self-splicing fitness (ln)” value (30 °C) is reported as -2.55 ± 0.13 and the “self-splicing fitness (ln)” value (37 °C) is reported as -1.52 ± 0.12.

In the case of CUUGAGCAAUAUUACGUCCA, the “self-splicing fitness (ln)” value (30 °C) is reported as -3.91 ± 0.39 and the “self-splicing fitness (ln)” value (37 °C) is reported as -2.55 ± 0.41.

For CUUGAGCAAUAUUACGUCGG, the “self-splicing fitness (ln)” value (30 °C) was -2.62 ± 0.11 and the “self-splicing fitness (ln)” value (37 °C) was -1.04 ± 0.12.

With CUUGAGCAAUAUUACGUGCG the “self-splicing fitness (ln)” value (30 °C) was -2.22 ± 0.13 and the “self-splicing fitness (ln)” value (37 °C) was -0.809 ± 0.14.

With CUUGAGCAAUAUUACGUGGC the “self-splicing fitness (ln)” value (37 °C) was -2.41 ± 0.31.

With CUUGAGCAAUAUUACGUUCU the “self-splicing fitness (ln)” value (30 °C) was -2.75 ± 0.41 and the “self-splicing fitness (ln)” value (37 °C) was -3.71 ± 0.42.

In the case of CUUGAGCAAUAUUACGUUUU, the “self-splicing fitness (ln)” value (30 °C) is reported as -3.92 ± 0.28 and the “self-splicing fitness (ln)” value (37 °C) is reported as -3.44 ± 0.3.

With CUUUAGCAAUAUUACGAACA the “self-splicing fitness (ln)” value (30 °C) was -3.07 ± 0.41.

With CUUUAGCAAUAUUACGAAUC the “self-splicing fitness (ln)” value (30 °C) was -1.01 ± 0.45.

In the case of CUUUAGCAAUAUUACGACGA, the “self-splicing fitness (ln)” value (37 °C) is reported as -1.82 ± 0.24.

With CUUUAGCAAUAUUACGAGCA the “self-splicing fitness (ln)” value (30 °C) was -3.14 ± 0.25 and the “self-splicing fitness (ln)” value (37 °C) was -3.05 ± 0.3.

In the case of CUUUAGCAAUAUUACGAUGG, the “self-splicing fitness (ln)” value (30 °C) is reported as -1.01 ± 0.1 and the “self-splicing fitness (ln)” value (37 °C) is reported as -0.752 ± 0.13.
